Data as given in article doi:10.1101/102822.
Where two headings read alike, the source gives them in different places.

Key:
[1] = target: Human VEGFR-1 D1-7 (residues 1-750), full-length extracellular domain (human) (UniProt P17948); experiment: ITC
[2] = target: Human VEGFR-1 D1-7 (residues 1-750), full-length extracellular domain (human) (UniProt P17948); experiment: SEC-MALS
[3] = target: Human VEGFR-1 D2-7 (residues 132-750) (human) (UniProt P17948); experiment: crystal structure
[4] = target: Human VEGFR-1 D1-6 (residues 1-660) (human) (UniProt P17948); experiment: crystal structure
[5] = target: Human VEGFR-1 D1-3 (residues 1-339) (human) (UniProt P17948); experiment: ITC

Kd ([1]; ligand) [nM]	stoichiometry N [2]	stoichiometry N [3]	stoichiometry N [4]	Kd [1] [nM]	Kd [5] [nM]	Substance
1.7						Human VEGF-A121
	1	1	1	2	50	Human VEGF-A121 (ligand)
